Measured values published in the domain aggregation screens of Martell et al. (2025).

Experiment: soluble fraction after stress (log2 fold change); higher = more stays soluble; pooled small domains, quantitative proteomics
Conditions: stress: 75 degC
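Further: 20 min heating vs room temperature control held 20 min.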

Sequence | soluble fraction (log2)
HMQNESGLFTMSDLWEAGLMGSENASRKRAAVGAFLGIGFGNGKQFLKRLNHFGVTKEEWESALEQLGE | -1.18
HMQPVEHLPTTDPLTTSAASEHERYEKVRWWLEEMQRTYETGDEVRAERIRLSLIEQMYKWEGE | -0.513
HMDVYKRQKLRNFIESLFEDAPKNKQTIELKEEMLQNLIDKYNDLVDSGKSSEAAYNIATAS | 0.131
HMTAQLSITLNGETRRAAAGSIADLVRSLELDPAKVAVERNGLIVPRSTLAEVALGDGDVLEIVHFV | -1
HMIHIGAQEALGEFQDEEGNLTASKKEVVAALVKKSKEVSFPTSYEYEVAARMAADEYNDAGQRMA | 0.167
HMDYYNILGVNKAATAQDIKRAYRKLAKEHHPDHGGDATRLQQVNEAYDTLKDPQRREQYDS | 0.215
HMDRDPAEAGYDDGYLSGNTDGMNNDERATYDESSQYPTPDERQSYAAAYRRGYAAGFADGRKQAV | -0.000174
HMLTLTNREKQVLVYIAKGHQVAQIAYELKLSGHTINGYIKTIYQKLHISSRAEAALLAQQYGL | -3.31
HMEQAMIVILKENPDRRQLEFLTGWLQKQQIGIHISEGAHQTVLGLVGDATRLDIDMLKQMEIVEDVKRVQ | -0.823
HMGVAAPMPGTITDVRVKVGDRVQPRTVVMMLEAMKMENEIFAGRAGVVSQVAVEKGASVNTGDLLISIDP | -0.311
HMRGESFSTLVSILQEMSARKAAQVLNGLSEGLAVEVLRALPSDVAGDILGRMDAAKAAALMEQLST | -0.46
HMEGSRASMDGQVPGKTSYLEWLARQPAQRQDQVLGAERGRLFRAGEIDLADMFTDKGEWISLERLKQLS | 0.309
HMLEQISDPEVLSKLADEVLSQQEKMVMDYRKGKTAAFQGLMGQMMKKTKGKGNPAKIQEILAQKL | 0.401
HMDAKIKDYADAYAKMDPQQAASLFNNMTTGSLDLVAKILENIPANKRAAILEKMDVNAAAQVTEKMR | -0.0156
HMRVESVGDRIRRLRKSLGLTQVKLAQMLGIKAPSVVQWESDKTNLSGENLLNAAKLFGVTPDYILYGG | -0.197
HMLGVKKFGGEAVIAGNIILRQRGTKWITGSNVGIGKDHTLFAKIEGYVVFERMRGRDGQQQISIYP | 0.0286
HMVDYSMEDSVWNNKKEHVNEWFDANPEHEGRRVIVDGLFAIGDAQPDLRKRHWSSISVVFADLDNSPIG | -0.327
HMSQDLVVLGDSMLNNALKAFHIDPNAIKKKYWDKLILDYHLKSKEEVLTEIALGKKINVMVAHQLTSIMD | 0.051
HMDETFTITFDPNGGTLNGSKTKTVSLGDIVYGKLPTASKTGYSFIGWFTEKEGGEQISSATKIIASDLTL | 0.0518
HMTAGYFTRGSHQDEVLRIQGTPSGVNKYSDHEVWNYGLSSVDISLRDRRVTEWNNISGNLKV | -0.149

Sequence | soluble fraction (log2)
HMRSGFAFSEEEIKHLDNIVSPLLIKGQSIHHISIFHKDEVMMSERTLYSYVNNGLFSARNIDMPRTVRMR | 0.476
HMASFTDAQALEVKDLYPDWSKIPEGTHLEAGQRVRYNGNLYKVRTGQAHDKQSTWTPTDAASLFEAID | 0.185
HMPVSDLQSALRNTLSKGDATDPAFRQRVYRAAMDALERATGSESDPQRRSEQKQRLIAVIRDMEASYRR | 0.157
HMSARRHAVKHLDANQLQTRVARMLSEFGLTAKVSKDPNSNALIIDGAPEAQRIAAQLITTIDKE | 0.0709
HMGVLDFSAQLLKHLEMNGGQTPLGDKSPAEEIYAVFGVSKKVFKKAVGDLYRKRLIEISSNGIRMTS | -2.14
HMSFGYFQLRAKDPQKLKSVLEKIPQIQSIKEEKGDLIGYLNADMEAEELSQKLAAAKIFVTHMAKKK | -0.583
HMDIAYFSNAELNDAFIQFLNMRQEAGKQLNGYQIQILTEKLERVADTDEDRISAVKNAIAGGWSNFYPPK | -0.607
HMGQISDEETLKTVASRIIDANPDEARKYRSGKTGLLGFFVGQVMKATQGEANPKLASRIVKELLE | -0.15
HMDKLNKELVSRMMDDAAWKELSKDFPWTEQLLEKYMNYVDWKEISRNYNVVWTKSLLEKFKHRLDWHE | -2.32
HMNKADFLRKLDRELSVLDQEERKEILSFYEERFYTGTNYENKTELDIINELENPEIIAKNVLEEYGV | -0.253
HMSDKEDIDKYLLTYGDLLFNRTNSSEWVGKTAIYRGEVSAIYAGYLIRIRSFLDAEYLNSVMNSKYA | 0.1
HMAGTAFPVRIMLKGIDRIGLLNEITGYISVAMGVNMRKLNLSTEDGIFEGYIDMLVHDRTVLESMIDNL | -0.381
HMKETKVIHVHLIFKKTSRFFGSISAIYSEFTAEEIGITEETLRHKGLSDGVSFATKKAIIQQGVLIR | -2.78
HMSHFRMLPSITEADAFLKSRSLPAGLEVREQVDAFLAQARQTLALAQEAPWLSKQEVLETLADEFVQTS | -0.652
HMLVNNSTIETVIDFANVKFGMELTKDQVSEQLRNLSFSQTLKLINSMKADDNDAFSEIIDL | -0.593
HMPEPPRVGETLAALRQDRALSLDELSRQAGVSKSMLSQIERNQANPTVAVVWRLANALGVPMAELLGA | -0.272
HMDPDAIVSKGQLGALNNAIGRFIAQGGSQTVVDKGIAKRNPNAKKPADLTNSQAESLEAAILKILNG | 0.73
HMLEQLTPRELKVLQALAQGRQNKEIAAQLVISERTVKFHVSAILSKLNVGNRTEAVTVAAQRGLISL | -1.6
HMSIDNALLTLIGKTGTAQTVLRPSGKVVIGDEVYDAVTAGEFIDKGSAIVVTRVEATQLYVEASEA | -0.411
